Laboratory results as given in paper PMC7005942.

Target: HIV-1 integrase wild type (HIV-1) (UniProt P12497)
Experiment: filter binding
Settings: Filter binding: 20 mM Tris-HCl pH 7.5, 200 mM NaCl, 6 mM MgCl2, 1 mM DTT, 0.1 mg/mL BSA, room temperature, 10 min

## HIV-1 TAR (1-57)
  Kd: > 5 µM
